Measurements: patent US20180128830A1, “DETECTION OF HUMAN CYTOMEGALOVIRUS IN BREAST CANCER” (priority 2015, published 2018)
Several values for one entry are separate records, joined by “and”; a condition that tells them apart may be missing. Identical values can stand only once.

Assays:
PAI-1 = PAI-1 ELISA on culture supernatants; assay type: cell-based, human; details: 10 ng/ml
Procedure: (§1) DuoSet ELISA kits (R&D Systems) were used to quantify uPAR, PAI-1, and MMP-3. For uPAR and PAI-1 measurement, MDA cells were seeded in triplicate in 96-well plate at 5.0×10^4 cell/mL density with complete L-15 media and treated with 10 ng/mL of either cmvIL-10 or hIL-10 for the indicated times and supernatants were collected daily. The ELISA was carried out on supernatants according to manufacturer's instructions using and following the addition of substrate and stop solution, absorbance of the plate was measured at 450 nm using a Dynex Opsys MR microplate reader. Sample concentrations were interpolated from a standard curve using linear regression analysis. For cell-associated MMP-3, MDA cells were seeded in 96-well plates and treated with cmvIL-10 as above. Cells were treated with cell lysis buffer (150 mM NaCl, 20 mM HEPES, 0.5% Triton-X-100, 1.0 mM NaOV4, 1.0 mM EDTA, 0.1% NaN3) supplemented with 1× protease inhibitors (Calbiochem, EMD Chemicals, San Diego Calif.) and were collected daily for the indicated time points. The lysates were evaluated for MMP-3 according to the manufacturer's instructions (R&D Systems).

MDA-MB-231 cells = experiment: Transcriptional profiling, Human Tumor Metastasis RT2 Profiler PCR Array; assay type: cell-based; details: 100 ng/mL, 5 hrs
Procedure: RNA was harvested from 10×10^6 MDA-MB-231 cells that were mock treated or treated with 100 ng/mL cmvIL-10 or hIL-10 for 5 hrs using the RNeasy Midi Kit and RNAse-Free DNase set (Qiagen, Valencia, Calif.). From the isolated RNA, cDNA was prepared using the RT^2 First Strand Kit (SA Biosciences, Frederick, Md.) and subsequently loaded into a 96-well breast cancer metastasis profiler PCR array (PAHS-028ZD) with system RT^2 SYBR Green Mastermix (SA Biosciences). The plates were run using the CFX96 Real-Time system cycler (BioRad, Hercules, Calif.) with the following amplification program: 95° C. for 10 min, 95° C. for […] with a slow ramp rate for 1.0 c/sec and 60° C. for 1 min. The data from three biological replicates for each treatment was analyzed by the ΔΔCT method according to manufacturer's instructions using the RT^2 profiler PCR array data analysis program located on the SABiosciences web portal and is reported as fold change relative to control.

uPAR = uPAR ELISA on culture supernatants; assay type: cell-based, human; details: 10 ng/ml
Procedure: as §1

B1: cmvIL-10 (protein)
chain: ATTTTIKNTKPQCRPEDYATRLQDLRVTFHRVKPTLQREDDYSVWLDGTVVKGCWGCSVMDWLLRRYLEIVFPAGDHVYPGLKTELHSMRSTLESIYKDMRQCPLLGCGDKSVISRLSQEAERKSDNGTRKGLSELDTLFSRLEEYLHSRK
- PAI-1 protein secreted (PAI-1; 12 hours): significantly increased
- PAI-1 production (PAI-1; after 24 hours, maintained over 72 hours): significant increase in PAI-1 production
- Fold Change vs. Mock, ACTB (MDA-MB-231 cells; ACTB mRNA): 1.0986 fold
- Fold Change vs. Mock, APC (MDA-MB-231 cells; APC mRNA): 0.9681 fold
- Fold Change vs. Mock, B2M (MDA-MB-231 cells; B2M mRNA): 0.9597 fold
- Fold Change vs. Mock, BRMS1 (MDA-MB-231 cells; BRMS1 mRNA): 0.8029 fold
- Fold Change vs. Mock, CCL7 (MDA-MB-231 cells; CCL7 mRNA): 0.8113 fold
- Fold Change vs. Mock, CD44 (MDA-MB-231 cells; CD44 mRNA): 1.1473 fold
- Fold Change vs. Mock, CD82 (MDA-MB-231 cells; CD82 mRNA): 0.6917 fold
- Fold Change vs. Mock, CDH1 (MDA-MB-231 cells; CDH1 mRNA): 0.6288 fold
- CDH6 fold change expressed as negative fold (down-regulation) (MDA-MB-231 cells; CDH6 mRNA): −1.23 fold
- Fold Change vs. Mock, CDH6 (MDA-MB-231 cells; CDH6 mRNA): 0.811 fold and 0.8113 fold
- Fold Change vs. Mock, CDH11 (MDA-MB-231 cells; CDH11 mRNA): 0.9033 fold
- Fold Change vs. Mock, CDKN2A (MDA-MB-231 cells; CDKN2A mRNA): 0.8113 fold
- Fold Change vs. Mock, CHD4 (MDA-MB-231 cells; CHD4 mRNA): 0.8970 fold
- Fold Change vs. Mock, COL4A2 (MDA-MB-231 cells; COL4A2 mRNA): 1.0929 fold
- Fold Change vs. Mock, CST7 (MDA-MB-231 cells; CST7 mRNA): 0.7149 fold
- Fold Change vs. Mock, CTBP1 (MDA-MB-231 cells; CTBP1 mRNA): 0.6245 fold
- Fold Change vs. Mock, CTNNA1 (MDA-MB-231 cells; CTNNA1 mRNA): 0.8816 fold
- Fold Change vs. Mock, CTSK (MDA-MB-231 cells; CTSK mRNA): 0.8043 fold
- Fold Change vs. Mock, CTSL1 (MDA-MB-231 cells; CTSL1 mRNA): 0.8212 fold
- Fold Change vs. Mock, CXCL12 (MDA-MB-231 cells; CXCL12 mRNA): 0.8113 fold
- Fold Change vs. Mock, CXCR4 (MDA-MB-231 cells; CXCR4 mRNA): 0.8084 fold
- Fold Change vs. Mock, DENR (MDA-MB-231 cells; DENR mRNA): 0.9816 fold
- Fold Change vs. Mock, EPHB2 (MDA-MB-231 cells; EPHB2 mRNA): 0.6693 fold
- Fold Change vs. Mock, ETV4 (MDA-MB-231 cells; ETV4 mRNA): 0.5418 fold
- Fold Change vs. Mock, EWSR1 (MDA-MB-231 cells; EWSR1 mRNA): 0.9465 fold
- Fold Change vs. Mock, FAT1 (MDA-MB-231 cells; FAT1 mRNA): 1.2752 fold
- Fold Change vs. Mock, FGFR4 (MDA-MB-231 cells; FGFR4 mRNA): 0.5362 fold
- Fold Change vs. Mock, FLT4 (MDA-MB-231 cells; FLT4 mRNA): 0.8113 fold
- Fold Change vs. Mock, FN1 (MDA-MB-231 cells; FN1 mRNA): 1.1044 fold
- Fold Change vs. Mock, FXYD5 (MDA-MB-231 cells; FXYD5 mRNA): 0.9400 fold
- Fold Change vs. Mock, GAPDH (MDA-MB-231 cells; GAPDH mRNA): 0.9335 fold
- Fold Change vs. Mock, GNRH1 (MDA-MB-231 cells; GNRH1 mRNA): 0.9970 fold
- Fold Change vs. Mock, HGF (MDA-MB-231 cells; HGF mRNA): 0.8113 fold
- Fold Change vs. Mock, HPRT1 (MDA-MB-231 cells; HPRT1 mRNA): 1.2796 fold
- Fold Change vs. Mock, HPSE (MDA-MB-231 cells; HPSE mRNA): 0.8620 fold
- Fold Change vs. Mock, HRAS (MDA-MB-231 cells; HRAS mRNA): 1.0075 fold
- Fold Change vs. Mock, HTATIP2 (MDA-MB-231 cells; HTATIP2 mRNA): 0.7439 fold
- Fold Change vs. Mock, IGF1 (MDA-MB-231 cells; IGF1 mRNA): 0.8635 fold
- Fold Change vs. Mock, IL1B (MDA-MB-231 cells; IL1B mRNA): 0.6266 fold
- Fold Change vs. Mock, IL18 (MDA-MB-231 cells; IL18 mRNA): 0.7362 fold
- Fold Change vs. Mock, ITGA7 (MDA-MB-231 cells; ITGA7 mRNA): 0.561 fold and 0.5609 fold
- ITGA7 fold change expressed as negative fold (down-regulation) (MDA-MB-231 cells; ITGA7 mRNA): −1.78 fold
- Fold Change vs. Mock, ITGB3 (MDA-MB-231 cells; ITGB3 mRNA): 1.0198 fold
- Fold Change vs. Mock, KISS1R (MDA-MB-231 cells; KISS1R mRNA): 0.8113 fold
- Fold Change vs. Mock, KISS1 (MDA-MB-231 cells; KISS1 mRNA): 1.1394 fold
- Fold Change vs. Mock, KRAS (MDA-MB-231 cells; KRAS mRNA): 1.0304 fold
- Fold Change vs. Mock, MCAM (MDA-MB-231 cells; MCAM mRNA): 0.768 fold and 0.7688 fold
- MCAM fold change expressed as negative fold (down-regulation) (MDA-MB-231 cells; MCAM mRNA): −1.32 fold
- Fold Change vs. Mock, MDM2 (MDA-MB-231 cells; MDM2 mRNA): 0.9531 fold
- Fold Change vs. Mock, MET (MDA-MB-231 cells; MET mRNA): 0.9833 fold
- Fold Change vs. Mock, METAP2 (MDA-MB-231 cells; METAP2 mRNA): 1.1295 fold
- Fold Change vs. Mock, MGAT5 (MDA-MB-231 cells; MGAT5 mRNA): 1.1795 fold
- Fold Change vs. Mock, MMP2 (MDA-MB-231 cells; MMP2 mRNA): −1.1101 fold
- Fold Change vs. Mock, MMP3 (MDA-MB-231 cells; MMP3 mRNA): 2.75 fold and 2.7478 fold
- Fold Change vs. Mock, MMP7 (MDA-MB-231 cells; MMP7 mRNA): 0.9416 fold
- Fold Change vs. Mock, MMP9 (MDA-MB-231 cells; MMP9 mRNA): 1.0233 fold
- Fold Change vs. Mock, MMP10 (MDA-MB-231 cells; MMP10 mRNA): 0.5980 fold
- Fold Change vs. Mock, MMP11 (MDA-MB-231 cells; MMP11 mRNA): 0.7026 fold
- Fold Change vs. Mock, MMP13 (MDA-MB-231 cells; MMP13 mRNA): 0.8127 fold
- Fold Change vs. Mock, MTA1 (MDA-MB-231 cells; MTA1 mRNA): 0.7388 fold
- MTSS1 fold change expressed as negative fold (down-regulation) (MDA-MB-231 cells; MTSS1 mRNA): −3.28 fold
- Fold Change vs. Mock, MYC (MDA-MB-231 cells; MYC mRNA): 0.8113 fold
- Fold Change vs. Mock, MYCL1 (MDA-MB-231 cells; MYCL1 mRNA): 0.5260 fold
- Fold Change vs. Mock, NF2 (MDA-MB-231 cells; NF2 mRNA): 1.0742 fold
- Fold Change vs. Mock, NME1 (MDA-MB-231 cells; NME1 mRNA): 1.0358 fold
- Fold Change vs. Mock, NME4 (MDA-MB-231 cells; NME4 mRNA): 0.8226 fold
- Fold Change vs. Mock, NR4A3 (MDA-MB-231 cells; NR4A3 mRNA): 0.5389 fold
- Fold Change vs. Mock, PLAUR (MDA-MB-231 cells; PLAUR (uPAR) mRNA): 1.59 fold and 1.5891 fold
- Fold Change vs. Mock, PNN (MDA-MB-231 cells; PNN mRNA): 1.3088 fold
- Fold Change vs. Mock, PTEN (MDA-MB-231 cells; PTEN mRNA): 0.7809 fold
- Fold Change vs. Mock, RB1 (MDA-MB-231 cells; RB1 mRNA): 0.9548 fold
- Fold Change vs. Mock, RORB (MDA-MB-231 cells; RORB mRNA): 0.6953 fold
- Fold Change vs. Mock, RPLP0 (MDA-MB-231 cells; RPLP0 mRNA): 1.0376 fold
- Fold Change vs. Mock, RPSA (MDA-MB-231 cells; RPSA mRNA): 0.9631 fold
- Fold Change vs. Mock, SERPINE1 (MDA-MB-231 cells; SERPINE1 (PAI-1) mRNA): 2.68 fold and 2.6818 fold
- Fold Change vs. Mock, SET (MDA-MB-231 cells; SET mRNA): 0.9664 fold
- Fold Change vs. Mock, SMAD2 (MDA-MB-231 cells; SMAD2 mRNA): 0.6869 fold
- Fold Change vs. Mock, SMAD4 (MDA-MB-231 cells; SMAD4 mRNA): 0.8384 fold
- Fold Change vs. Mock, SRC (MDA-MB-231 cells; SRC mRNA): 0.5297 fold
- Fold Change vs. Mock, SSTR2 (MDA-MB-231 cells; SSTR2 mRNA): 0.5556 fold
- Fold Change vs. Mock, SYK (MDA-MB-231 cells; SYK mRNA): 0.8590 fold
- Fold Change vs. Mock, TCF20 (MDA-MB-231 cells; TCF20 mRNA): 0.7823 fold
- Fold Change vs. Mock, TGEB1 (MDA-MB-231 cells; TGEB1 (Transforming growth factor, beta 1) mRNA): 0.7173 fold
- Fold Change vs. Mock, TIMP2 (MDA-MB-231 cells; TIMP2 mRNA): 0.7596 fold
- Fold Change vs. Mock, TIMP3 (MDA-MB-231 cells; TIMP3 mRNA): 0.8155 fold
- Fold Change vs. Mock, TIMP4 (MDA-MB-231 cells; TIMP4 mRNA): 0.7324 fold
- Fold Change vs. Mock, TNFSF10 (MDA-MB-231 cells; TNFSF10 mRNA): 0.8169 fold
- Fold Change vs. Mock, TP53 (MDA-MB-231 cells; TP53 mRNA): 0.6180 fold
- Fold Change vs. Mock, TRPM1 (MDA-MB-231 cells; TRPM1 mRNA): 0.8113 fold
- Fold Change vs. Mock, TSHR (MDA-MB-231 cells; TSHR mRNA): 0.8113 fold
- Fold Change vs. Mock, VEGFA (MDA-MB-231 cells; VEGFA mRNA): 0.554 fold and 0.5541 fold
- VEGFA fold change expressed as negative fold (down-regulation) (MDA-MB-231 cells; VEGFA mRNA): −1.80 fold
- uPAR protein levels (uPAR): elevated
